In PMC10311354, “RNA-binding is an ancient trait of the Annexin family” (Frontiers in Cell and Developmental Biology, 2023):

Experiments:
[1] = system: Δ188AnxA11 (Rattus norvegicus); assay: BLI; details: RNA-binding buffer: 10 mM triethanolamine pH 7.4, 50 mM KCl, 1 mM DTT, 2 mM MgSO4, 100 uM CaCl2; spot blot at RT, blocked with 1 mg/mL tRNA; BLI temperature …
[2] = system: AnxA13 (Rattus norvegicus); assay: BLI; details: RNA-binding buffer: 10 mM triethanolamine pH 7.4, 50 mM KCl, 1 mM DTT, 2 mM MgSO4, 100 uM CaCl2; spot blot at RT, blocked with 1 mg/mL tRNA; BLI temperature …
[3] = system: Δ142AnxA7 (Rattus norvegicus); assay: BLI; details: RNA-binding buffer: 10 mM triethanolamine pH 7.4, 50 mM KCl, 1 mM DTT, 2 mM MgSO4, 100 uM CaCl2; spot blot at RT, blocked with 1 mg/mL tRNA; BLI temperature …
[4] = system: AnxA2 (Rattus norvegicus); assay: BLI; details: RNA-binding buffer: 10 mM triethanolamine pH 7.4, 50 mM KCl, 1 mM DTT, 2 mM MgSO4, 100 uM CaCl2; spot blot at RT, blocked with 1 mg/mL tRNA; BLI temperature …
[5] = molecular target: the molecule itself; assay: SDS-PAGE (Coomassie Brilliant Blue staining); purified recombinant rat Anxs on 4%-15% SDS-PAGE, denaturation buffer with beta-mercaptoethanol; dimeric forms seen as faint bands beside the monomer; nature of the dimers not known (disulfide or tight noncovalent)

Molecule | Kd [1] [nM] | Kd [2] [nM] | Kd [3] [nM] | Kd [4] [nM] | binding result [5]
anxA2 3'UTR | > 500 | 246 | 174 | 192 | –
c-myc 3'UTR | 124 | 130 | 126 | 73.9 | –
c-myc 5'UTR | – | – | – | 37.2 | –
rat Annexin A2 (natural protein, UniProt Q07936 1-339, looked up, The forward primer puts ATGGGT before the natural start codon, so Met-Gly may precede the natural Met; also called AnxA2; source: E. coli BL21 (DE3), purified (Ni2+-NTA, size exclusion chromatography)) MSTVHEILCKLSLEGDHSTPPSAYGSVKPYTNFDAERDALNIETAIKTKGVDEVTIVNILTNRSNAQRQDIAFAYQRRTKKELPSAMKSALSGHLETVMLGLLKTPAQYDASELKASMKGLGTDEDSLIEIICSRTNQELQEINRVYKEMYKTDLEKDIISDTSGEFRKLLVALAKGKRAEDGSVIDYELIDQDARELYDAGVKRKGTDVPKWISIMTERSVCHLQKVFERYKSYSPYDMLESIRKEVKGDLENAFLNLVQCIQNKPLYFADRLYDSMKGKGTRDKVLIRIMVSRSEVDMLKIRSEFKRKYGKSLYYFIQQDTKGDYQKALLYLCGGDD | – | – | – | – | binds
rat Annexin A1 (natural protein, UniProt P07150 1-346, looked up, Annexin A1, rat, isoform X1, 346 aa, cDNA by RT-PCR from PC12 cells; The forward primer puts ATGGGT before the natural start codon, so Met-Gly may precede the natural Met; also called AnxA1; source: E. coli BL21 (DE3), purified (Ni2+-NTA, size exclusion chromatography)) MAMVSEFLKQACYIEKQEQEYVQAVKSYKGGPGSAVSPYPSFNPSSDVAALHKAIMVKGVDEATIIDILTKRTNAQRQQIKAAYLQETGKPLDETLKKALTGHLEEVVLAMLKTPAQFDADELRAAMKGLGTDEDTLIEILTTRSNQQIREITRVYREELKRDLAKDITSDTSGDFRNALLALAKGDRCEDMSVNQDLADTDARALYEAGERRKGTDVNVFNTILTTRSYPHLRKVFQNYRKYSQHDMNKALDLELKGDIEKCLTTIVKCATSTPAFFAEKLYEAMKGAGTRHKTLIRIMVSRSEIDMNEIKVFYQKKYGIPLCQAILDETKGDYEKILVALCGGN | – | – | – | – | binds
rat Annexin A8 (natural protein, UniProt Q4FZU6 1-327, looked up, Annexin A8, rat, 327 aa, cDNA from total RNA of rat lung; The forward primer puts ATGGGT before the natural start codon, so Met-Gly may precede the natural Met; also called AnxA8; source: E. coli BL21 (DE3), purified (Ni2+-NTA, size exclusion chromatography)) MAWWKAWVEQEGVSVKGSSHFNPDPDAETLYKAMKGIGTNEQAIIDVLTKRSNVQRQQIAKSFKAQFGKDLTETLKSELSGKFERLIVALMYPPYRYEAKELHDAMKGLGTKEGVIIEILASRTKNQLREIMKAYEEDYGSTLEEDIQGDTSGYLERILVCLLQGCRDDVSGFVDPGLALQDAQDLHAAGEKILGTDEMKFITILCTRSATHLMRVFEEYEKIANKSIEDSIKSETHGSLEEAMLTVVKCTRNVHSYFAERLYYAMKGAGTLDGTLIRNIVSRSEIDLNLIKSQFQKMYGKTLSSMIMGDTSGYYKTALLNLVGTDL | – | – | – | – | binds
rat Annexin A3 (natural protein, UniProt P14669 1-324, looked up, The forward primer puts ATGGGT before the natural start codon, so Met-Gly may precede the natural Met; also called AnxA3; source: E. coli BL21 (DE3), purified (Ni2+-NTA, size exclusion chromatography)) MAASLWVGPRGTINNYPGFNPSVDAEAIRKAIKGIGTDEKTLINILTERSNAQRQLIVKQYQEAYEQALKADLKGDLSGHFEHVMVALITAPAVFDAKQLKKSMRGMGTDEDTLIEILTTRTSRQMKEISQAYYTAYKKNLRDDISSETSGDFRKALLTLADGGRDESLKVDEHLAKKDAQTLYDAGEKKWGTDEDKFTEILCLRSFPQLKLTFDEYRNISQKDIEDSIKGELSGHFEDLLLAVVRCTRNTPAFLAGRLHQALKGAGTDEFTLNRIMVSRSEIDLLDIRREFKKHYGCSLYSAIQSDTSGDYRTVLLKICGGDD | – | – | – | – | binds
